As a reminder, the stoichiometry N is the number of molecules, sites or subunits per partner or assembly.

The record followed here is PMC9580340 (Science (New York, N.y.), 2022).

Test [1] concerns the target T1, SARS-CoV-2 D614G spike, full length, on transfected 293T cells (SARS-CoV-2, QHD43416.1 (Wuhan-Hu-1) …, UniProt A0A6H1PJZ3, D614G).
T1 construct: also called ancestral D614G spike
The test can be described thus: flow cytometry on cells. The settings on record: one partner purified. Background: In flow cytometry, cells or beads pass a laser one at a time.

Test [2] has as its target SARS-CoV-2 B.1.1.529 (Omicron; BA.1) spike, full length, on transfected 293T cells (SARS-CoV-2 B.1.1.529 (Omicron BA.1), A67V | H69del | V70del | T95I | G142D | V143del | Y144del | Y145del | N211del | …). The test can be described thus: flow cytometry on cells. The settings on record: one partner purified.
Test [3] deals with T2, SARS-CoV-2 B.1.1.529 (Omicron) S2P spike, trimeric ectodomain (cryo-EM) (SARS-CoV-2 B.1.1.529 (Omicron BA.1), …, A67V | H69del | V70del | T95I | G142D | V143del | Y144del | Y145del | N211del | …).
T2 construct: also called B.1.1.529 spike; B.1.1.529 S2P spike
The test can be described thus: cryo-EM structure. To be noted: both partners purified.

B1: A19-61.1 IgG1 (antibody, V domains shown)
VH: QVQLVESGGGVVQPGRSLRLSCAASGFTFSSYAFHWVRQAPGKGLEWVAVISYDGSNQYYADSVKGRFTISRDNSKNTLYLQMNSLRADDTAVYYCARDLAIAVAGTWHYYNGMDVWGQGTTVTVSS
VL: DIQMTQSPSSVSASVGDRVIITCRASQGISSWLAWYQQKPGKAPKVLIYDASSLQSGVPSRFSGSGYGTDFTLTISSLQPEDSATYYCQQAKSFPITFGQGTRLEIK
Take B1: the binding result in test [1] is recorded as “binds”.

B2: A19-46.1 IgG1 (antibody, V domains shown)
VH: QVQLVESGGGVVQPGRSLRLSCAASGFTLSSYGMHWVRQAPGKGLEWVAVISYDGSNKYYVDSVKGRFTISRDNSKNTLYLQMNSLRAEDTAVYYCARGWAYWELLPDYYYGMDVWGQGTTVTVSS
VL: QTVVTQEPSFSVSPGGTVTLTCGLSSGSVSTAYFPSWYQQTPGQAPRTLIYGTNTRSSGVPDRFSGSILGNKAALTITGAQADDESDYYCVLYMGRGIVVFGGGTKLTVL
Turning to B2, in test [1], the binding result was “binds”. For the same molecule, in test [2], the “binding as percent of D614G” value was 47 % of D614G.

B3: Fab A19-46.1 (Fab, V domains shown)
VH: B2 VH
VL: B2 VL
notes: 17-residue-long CDR H3
For the molecule B3, the “stoichiometry N” value in test [3] was 2 Fabs per spike trimer.
